The values below come from patent publication US7951385B2, “Probiotic strain and antimicrobial peptide derived therefrom” (Cipla Medpro Research and Development (Pty) Ltd., priority 2006, dated 2011).

Where two headings read alike, the source gives them in different places.

The format of series [1] is physicochemical. The procedure: The stability of peptide ST4SA, suspended in sterile distilled water, was tested at temperatures ranging from −20° C. to 60° C. over 42 days (FIG. 12). The peptide remained stable at −20° C. for 42 days and for three weeks at 4° C. […] Peptide ST4SA in powder form did, however, remain stable for 6 months at room temperature (25° C.). Peptide ST4SA will be produced in powder form and marketed as such. Once dissolved in sterile distilled water, peptide ST4SA may be kept for three weeks at 4° C. (see FIG. 12).

Series [2] relates to pathogens (Streptococcus pneumoniae, Klebsiella pneumoniae, middle ear isolates). Put plainly: Cell lysis / growth inhibition of pathogens in BHI broth. To be noted: peptide added at mid-exponential phase, BHI broth (FIGS. 15 to 23). Format: cell-based. The procedure:
A 0.2% (v/v) inoculum of an overnight pathogen was inoculated into BHI broth. Peptide ST4SA was added to each pathogen at mid-exponential phase.

The test system of another series is virulence factors. Put plainly: Virulence factors assayed (in vitro tests and/or PCR screening). Details: species or system Enterococcus mundtii. The text has this: The presence of virulence factors, viz. vancomycin resistance (VanA/VanB/VanC1/VanC2/VanC3), production of gelatinase (Gel), aggregation substance (AS), adhesin of collagen from enterococci (Ace), enterococcus surface protein (Esp), haemolysin/bacteriocin (Cyl) and non-cytolysin beta hemolysin genes were studied by in vitro tests and/or PCR screening. DNA was extracted from E. mundtii ST4 according to standard methods. The primers designed for amplification of the latter genes were as described.

Series [3] deals with tumour necrosis factor (TNF), interferon γ (IFN). Put plainly: Immune modulation (cytokine RNA hybridization, ileum and colon). Type of series: in vivo, rat. The procedure:
Total RNA was extracted from the frozen ileum and colon samples using Trizol reagent. The concentration of RNA was determined by measuring the absorbance at 260 nm using a Nanodrop spectrophotometer, after DNase treatment had been completed. Each RNA sample was diluted to a concentration of 42 ng/μl. A total of 5 μg of each sample was transferred in triplicate onto a nylon membrane using a slot blot apparatus. The membrane was then probed with either a tumour necrosis factor (TNF), interferon γ (IFN) or β-actin DNA probe amplified from rat genomic DNA and labeled with DIG. The membrane was exposed to X-ray film overnight and developed.

The test system of series [4] is Lactobacillus sakei DSM 20017. Put plainly: Binding of peptide ST4SA to polyethylene (PE). Type of series: physicochemical. The procedure:
Binding of peptide ST4SA to polyethylene (PE) was tested. PE film was cut into sections of 5×5 cm and soaked for 1 h in a solution of 60% isopropanol and peptide ST4SA (activity level: 102 400 AU/ml). The PE sections were air-dried (20 min at 60° C.) and assayed for antimicrobial activity by using the standard agar diffusion method. The plates, seeded with L. sakei DSM 20017, were incubated for 24 h at 30° C. and examined for zones of growth inhibition.
The strength of binding was determined by soaking the peptide-coated PE film in SDS-buffer, followed by electro-eluting peptide ST4SA from the film with a current of 30 mA for 2 h (room temperature, i.e. ca. 25° C.). Samples were taken at regular time intervals and tested for antimicrobial activity. Protein concentrations were determined by using the Bradford method. Electro-eluted film was tested for antimicrobial activity by using the agar diffusion method as before.

Series [5] has as its system pathogenic bacteria (Listeria, Bacillus and Staphylococcus). Put plainly: Challenge study with red meat as model, PE-bound peptide. To be noted: surface (PE)-bound peptide. The procedure:
Peptide ST4SA adhered strongly, and it would seem irreversibly, to the PE film. Release of peptide ST4SA from the surface of PE was only possible after 1 h with a current of 30 mA. […] The encapsulation of the antimicrobial peptide in the polymer leads to a slow release of the antimicrobial peptide and an extended period of treatment of a microbial infection.

As for “Peptide ST4SA: broad-spectrum antibacterial peptide (bacteriocin) produced by Enterococcus mundtii strain ST4SA, SEQ. ID. NO. 12 (MSQVVGGKYYGNGVSCNKKGCSVDWGKAIGIIGNNSAANLATGGAAGWKS; ENTEROCOCCUS MUNDTII ST4SA)”, in series [1], the Stability result was “Stability decreased after one week”. In addition, the “Time peptide remained stable” value in series [1] (powder form, room temperature (25° C.)) worked out at 6 months. In series [1] (suspended in sterile distilled water, 4° C.), the “Time peptide remained stable” value is recorded as “three weeks”. In addition, the “Time peptide remained stable” value in series [1] (suspended in sterile distilled water, −20° C.) amounted to 42 days. Also, the “Mode of action on pathogens” value in series [2] is “acted in a bactericidal manner against most pathogens”. For the same substance, in the series on virulence factors, the “Virulence factor AS (Aggregation substance)” value is reported as “−”; the “Virulence factor Ace (Adhesin to collagen from E. faecalis)” value is listed as “−”; the “Virulence factor Cyl (Cytolysin, β-hemolysin activity)” value is “+”; the “Virulence factor Efa-Afm (E. faecium endocarditis antigen)” value is listed as “−”. Further, in the series with virulence factors, the “Virulence factor Efa-Afs (E. faecalis endocarditis antigen)” value is “−”, the “Virulence factor Esp (Enterococcus surface protein)” value was “−”, the “Virulence factor Gel (Gelatinase production)” value is “−” and the “Virulence factor Non-cyt (non-cytolysin beta hemolysin III)” value is recorded as “+”. In the series with virulence factors, the “Virulence factor Van A (Vancomycin resistance)” value is listed as “−”, the “Virulence factor Van B (Vancomycin resistance)” value is given as “−” and the “Virulence factor Van C1/2/3” value is reported as “−”. Also, the “Cytokine (TNF or IFN) expression” value in series [3] is recorded as “did not indicate any cytokine (TNF or IFN) expression”. The “Time to adsorb to PE” value in series [4] (PE film, 60% isopropanol, peptide 102 400 AU/ml) is no more than 60 s. The “Antimicrobial activity of peptide-coated PE film” value in series [4] (agar diffusion, L. sakei DSM 20017) is on record as “high antimicrobial activity”. In series [4] (electro-elution, current of 30 mA, SDS-buffer), the “Time to release of peptide from the surface of PE” value was no less than 1 h. In addition, in series [5], the “Growth of pathogenic bacteria on red meat” value is on record as “prevented the growth of pathogenic bacteria”.
